Laboratory results published in the supplement of paper PMC10065799, “High-throughput profiling of sequence recognition by tyrosine kinases and SH2 domains using bacterial peptide display” (eLife, 2023).

Legend:
[1] = target: c-Src SH2; assay: SH2 binding enrichment of the phosphorylated peptide, bacterial display (enrichment ratio); higher = better substrate or ligand; peptides without Tyr show the background
[2] = target: SHP2-C SH2; assay: as above
[3] = target: Grb2 SH2 (UniProt P62993); assay: as above
[4] = target: Jak2 (UniProt O60674); assay: phosphorylation enrichment, bacterial display (enrichment ratio); higher = better substrate or ligand; peptides without Tyr show the background
Chain of Jak2 (O60674 whole entry, looked up): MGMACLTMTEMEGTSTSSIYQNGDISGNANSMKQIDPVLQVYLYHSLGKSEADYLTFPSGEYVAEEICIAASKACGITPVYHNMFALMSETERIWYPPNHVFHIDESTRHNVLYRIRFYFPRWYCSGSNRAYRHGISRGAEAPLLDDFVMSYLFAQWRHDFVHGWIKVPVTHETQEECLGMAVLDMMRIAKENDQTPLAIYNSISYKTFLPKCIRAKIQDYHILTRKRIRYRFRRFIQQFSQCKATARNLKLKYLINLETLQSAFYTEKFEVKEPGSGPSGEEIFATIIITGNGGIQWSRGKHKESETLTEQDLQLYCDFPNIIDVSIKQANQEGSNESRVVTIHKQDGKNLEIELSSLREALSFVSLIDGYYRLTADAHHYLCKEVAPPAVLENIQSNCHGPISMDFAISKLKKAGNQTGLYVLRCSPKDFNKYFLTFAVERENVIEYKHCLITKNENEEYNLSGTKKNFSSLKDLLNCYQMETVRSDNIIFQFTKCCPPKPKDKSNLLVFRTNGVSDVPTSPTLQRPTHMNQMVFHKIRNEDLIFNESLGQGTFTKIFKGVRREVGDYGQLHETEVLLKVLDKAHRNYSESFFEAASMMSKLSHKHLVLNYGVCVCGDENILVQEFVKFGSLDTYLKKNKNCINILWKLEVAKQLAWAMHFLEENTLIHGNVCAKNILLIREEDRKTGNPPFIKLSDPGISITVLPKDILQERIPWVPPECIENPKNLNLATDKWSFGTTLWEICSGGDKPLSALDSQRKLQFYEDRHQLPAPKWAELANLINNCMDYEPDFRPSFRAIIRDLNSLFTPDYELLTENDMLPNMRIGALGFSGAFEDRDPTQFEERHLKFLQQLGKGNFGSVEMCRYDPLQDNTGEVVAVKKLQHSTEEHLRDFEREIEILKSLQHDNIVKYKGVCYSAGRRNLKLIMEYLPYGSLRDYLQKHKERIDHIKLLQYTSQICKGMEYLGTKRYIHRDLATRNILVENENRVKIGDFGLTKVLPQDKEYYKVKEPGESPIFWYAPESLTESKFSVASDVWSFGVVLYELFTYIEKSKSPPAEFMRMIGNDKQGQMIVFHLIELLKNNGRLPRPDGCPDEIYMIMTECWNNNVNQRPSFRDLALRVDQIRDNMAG

[5] = target: Fes (UniProt P07332); assay: as above
[6] = target: EPHB2 (UniProt P29323); assay: as above
Chain of EPHB2 (P29323 whole entry, looked up): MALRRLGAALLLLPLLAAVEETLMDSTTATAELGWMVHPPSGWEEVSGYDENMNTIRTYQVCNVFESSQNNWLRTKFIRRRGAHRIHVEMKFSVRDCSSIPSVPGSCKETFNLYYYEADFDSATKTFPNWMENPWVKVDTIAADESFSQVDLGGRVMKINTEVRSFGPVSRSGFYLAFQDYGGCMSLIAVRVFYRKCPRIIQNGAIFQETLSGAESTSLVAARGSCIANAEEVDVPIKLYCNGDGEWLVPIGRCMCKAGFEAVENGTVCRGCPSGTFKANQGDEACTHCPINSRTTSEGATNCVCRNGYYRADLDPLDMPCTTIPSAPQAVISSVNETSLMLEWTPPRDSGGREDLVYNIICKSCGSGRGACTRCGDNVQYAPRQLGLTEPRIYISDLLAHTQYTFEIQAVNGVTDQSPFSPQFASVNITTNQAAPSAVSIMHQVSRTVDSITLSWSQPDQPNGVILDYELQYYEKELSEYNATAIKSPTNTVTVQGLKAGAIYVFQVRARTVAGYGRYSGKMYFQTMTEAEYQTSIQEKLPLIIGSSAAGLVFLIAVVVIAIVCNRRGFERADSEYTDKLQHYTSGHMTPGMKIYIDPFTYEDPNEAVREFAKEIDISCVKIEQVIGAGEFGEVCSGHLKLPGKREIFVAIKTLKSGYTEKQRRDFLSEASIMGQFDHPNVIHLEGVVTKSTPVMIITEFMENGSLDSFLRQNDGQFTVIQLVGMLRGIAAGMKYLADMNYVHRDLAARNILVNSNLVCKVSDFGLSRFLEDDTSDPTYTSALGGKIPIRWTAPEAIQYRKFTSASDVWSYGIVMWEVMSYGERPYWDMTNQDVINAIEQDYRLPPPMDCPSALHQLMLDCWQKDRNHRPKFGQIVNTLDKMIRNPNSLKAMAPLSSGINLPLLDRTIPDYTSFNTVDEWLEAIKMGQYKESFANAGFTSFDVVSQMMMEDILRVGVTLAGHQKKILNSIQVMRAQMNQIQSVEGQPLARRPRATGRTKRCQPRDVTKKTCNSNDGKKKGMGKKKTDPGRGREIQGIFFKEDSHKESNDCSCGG

[7] = target: FGFR1 (UniProt P11362); assay: as above
[8] = test system: AncSZ; assay: as above
[9] = target: MERTK (UniProt Q12866); assay: as above
[10] = target: Hck (UniProt P08631); assay: as above
Chain of Hck (P08631 whole entry, looked up): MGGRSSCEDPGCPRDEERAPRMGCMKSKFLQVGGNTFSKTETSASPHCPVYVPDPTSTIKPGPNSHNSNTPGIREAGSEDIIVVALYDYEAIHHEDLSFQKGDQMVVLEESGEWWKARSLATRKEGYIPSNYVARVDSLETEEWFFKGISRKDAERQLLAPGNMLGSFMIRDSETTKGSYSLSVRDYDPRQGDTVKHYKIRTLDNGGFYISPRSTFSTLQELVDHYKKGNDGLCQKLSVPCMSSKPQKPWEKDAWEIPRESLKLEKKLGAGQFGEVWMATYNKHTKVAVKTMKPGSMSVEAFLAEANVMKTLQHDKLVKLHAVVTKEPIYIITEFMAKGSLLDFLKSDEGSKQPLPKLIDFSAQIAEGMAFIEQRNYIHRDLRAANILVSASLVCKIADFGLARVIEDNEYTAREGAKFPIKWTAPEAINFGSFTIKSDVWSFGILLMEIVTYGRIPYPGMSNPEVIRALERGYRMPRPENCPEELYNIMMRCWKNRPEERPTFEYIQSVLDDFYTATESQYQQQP

[11] = target: EPHB1 (UniProt P54762); assay: as above
Chain of EPHB1 (P54762 whole entry, looked up): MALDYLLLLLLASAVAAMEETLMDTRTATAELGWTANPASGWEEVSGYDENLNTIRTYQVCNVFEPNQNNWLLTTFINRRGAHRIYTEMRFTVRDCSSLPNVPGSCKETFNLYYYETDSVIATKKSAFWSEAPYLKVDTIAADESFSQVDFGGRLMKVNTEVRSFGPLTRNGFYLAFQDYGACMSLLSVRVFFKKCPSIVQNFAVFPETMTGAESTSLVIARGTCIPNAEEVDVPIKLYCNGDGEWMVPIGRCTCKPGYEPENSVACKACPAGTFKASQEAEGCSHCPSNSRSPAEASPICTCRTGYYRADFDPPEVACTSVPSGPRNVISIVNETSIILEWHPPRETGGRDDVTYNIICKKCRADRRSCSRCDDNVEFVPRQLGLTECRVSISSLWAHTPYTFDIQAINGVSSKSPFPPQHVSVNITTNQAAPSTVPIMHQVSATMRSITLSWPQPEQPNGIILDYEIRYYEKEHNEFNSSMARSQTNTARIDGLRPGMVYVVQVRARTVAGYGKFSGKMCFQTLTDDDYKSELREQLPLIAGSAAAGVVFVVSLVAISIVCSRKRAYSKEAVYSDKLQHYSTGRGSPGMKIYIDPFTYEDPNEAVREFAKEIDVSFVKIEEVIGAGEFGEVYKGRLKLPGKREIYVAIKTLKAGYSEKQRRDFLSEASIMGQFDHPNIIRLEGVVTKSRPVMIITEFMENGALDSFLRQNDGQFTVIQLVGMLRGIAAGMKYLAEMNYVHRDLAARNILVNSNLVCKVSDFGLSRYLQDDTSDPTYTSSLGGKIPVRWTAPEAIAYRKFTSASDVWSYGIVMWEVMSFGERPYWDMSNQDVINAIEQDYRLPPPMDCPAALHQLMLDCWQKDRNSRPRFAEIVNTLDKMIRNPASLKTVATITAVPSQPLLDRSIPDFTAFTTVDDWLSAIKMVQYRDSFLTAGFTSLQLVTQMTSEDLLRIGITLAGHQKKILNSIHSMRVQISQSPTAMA

[12] = target: FGFR3 (UniProt P22607); assay: as above
Chain of FGFR3 (P22607 whole entry, looked up): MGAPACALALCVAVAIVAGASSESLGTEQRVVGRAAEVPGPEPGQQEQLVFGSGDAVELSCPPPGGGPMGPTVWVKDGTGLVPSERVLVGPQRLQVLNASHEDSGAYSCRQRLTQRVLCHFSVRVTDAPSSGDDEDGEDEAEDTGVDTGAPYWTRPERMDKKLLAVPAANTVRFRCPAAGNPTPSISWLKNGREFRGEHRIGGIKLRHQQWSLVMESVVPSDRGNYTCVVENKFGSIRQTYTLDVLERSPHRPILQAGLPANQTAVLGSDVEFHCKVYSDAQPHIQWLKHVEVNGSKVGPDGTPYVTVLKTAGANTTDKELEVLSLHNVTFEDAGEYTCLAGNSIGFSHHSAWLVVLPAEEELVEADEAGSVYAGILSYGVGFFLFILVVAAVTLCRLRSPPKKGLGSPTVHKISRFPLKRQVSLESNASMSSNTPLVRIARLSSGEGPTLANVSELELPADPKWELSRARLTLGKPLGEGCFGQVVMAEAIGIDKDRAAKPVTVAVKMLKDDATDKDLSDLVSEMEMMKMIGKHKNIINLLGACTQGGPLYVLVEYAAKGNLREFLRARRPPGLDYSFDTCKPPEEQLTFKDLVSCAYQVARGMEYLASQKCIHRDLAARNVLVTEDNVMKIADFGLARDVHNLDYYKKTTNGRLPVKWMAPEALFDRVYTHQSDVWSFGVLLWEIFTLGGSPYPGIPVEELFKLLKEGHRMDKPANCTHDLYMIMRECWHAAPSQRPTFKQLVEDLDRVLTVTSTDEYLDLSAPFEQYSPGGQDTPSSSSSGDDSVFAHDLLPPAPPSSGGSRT

[13] = test system: c-Abl (mouse); assay: as above
[14] = target: Fyn (UniProt P06241); assay: as above
Chain of Fyn (P06241 whole entry, looked up): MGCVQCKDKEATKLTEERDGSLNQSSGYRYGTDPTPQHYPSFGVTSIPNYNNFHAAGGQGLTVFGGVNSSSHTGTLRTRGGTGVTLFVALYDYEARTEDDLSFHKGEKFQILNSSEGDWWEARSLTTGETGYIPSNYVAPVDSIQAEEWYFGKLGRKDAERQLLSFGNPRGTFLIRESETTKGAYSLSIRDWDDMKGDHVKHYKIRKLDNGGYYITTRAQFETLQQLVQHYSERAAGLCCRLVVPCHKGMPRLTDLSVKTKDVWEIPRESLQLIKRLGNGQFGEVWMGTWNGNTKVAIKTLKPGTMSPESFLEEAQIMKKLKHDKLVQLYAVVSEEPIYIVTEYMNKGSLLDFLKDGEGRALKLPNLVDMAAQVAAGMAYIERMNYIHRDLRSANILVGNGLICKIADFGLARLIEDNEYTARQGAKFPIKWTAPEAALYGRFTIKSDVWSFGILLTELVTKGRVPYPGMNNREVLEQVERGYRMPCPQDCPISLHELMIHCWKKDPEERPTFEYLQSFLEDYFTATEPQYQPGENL

[15] = test system: c-Src; assay: as above
[16] = test system: Fer (mouse); assay: as above
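Throughout, for SH2 binding enrichment of the phosphorylated peptide, bacterial display: peptide library displayed on the E. coli surface as eCPX fusions, selected cells deep-sequenced, score is each peptide's frequency after selection divided by its frequency in the input.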
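Throughout, for phosphorylation enrichment, bacterial display: 11-residue human phosphosite peptides and single-mutation variants displayed on the E. coli surface, counted by deep sequencing, each peptide's frequency after selection divided by its frequency in the unselected input library; frequency after pTyr selection over input frequency; kinase dosed for 20-30% of maximal phosphorylation in three min.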

Sequence | SH2 binding enrichment [1] | SH2 binding enrichment [2] | SH2 binding enrichment [3] | phosphorylation enrichment [4] | phosphorylation enrichment [5] | phosphorylation enrichment [6] | phosphorylation enrichment [7] | phosphorylation enrichment [8] | phosphorylation enrichment [9] | phosphorylation enrichment [10] | phosphorylation enrichment [11] | phosphorylation enrichment [12] | phosphorylation enrichment [13] | phosphorylation enrichment [14] | phosphorylation enrichment [15] | phosphorylation enrichment [16]
TKDTFYKQRMF [GBA_Y451_P454R] | 0.396 | 0.68 | 0.83 | 0.404 | 0.579 | 0.406 | 0.41 | 0.56 | 0.372 | 0.339 | 0.359 | 0.391 | 0.458 | 0.344 | 0.351 | 0.416
SHGKQYRVPSD [HHIPL2_Y395_R394Q] | 0.403 | 0.475 | 0.686 | 0.46 | 0.544 | 0.371 | 0.344 | 0.54 | 0.347 | 0.4 | 0.35 | 0.427 | 0.512 | 0.34 | 0.353 | 0.354
ARKCKYFKKHE [NFIX_Y40_R38C] | 0.646 | 0.847 | 1.1 | 0.596 | 0.974 | 0.403 | 0.428 | 0.619 | 0.486 | 0.48 | 0.452 | 0.565 | 0.75 | 0.463 | 0.545 | 0.443
PLQHVYKIGGI [EEF1A2_Y254_D252H] | 0.517 | 0.588 | 0.941 | 1.52 | 1.06 | 0.71 | 0.649 | 0.964 | 0.739 | 0.865 | 0.73 | 0.733 | 0.766 | 0.643 | 0.959 | 0.696
CTTSHYNFMCN [TP53_Y234_I232S_YF] | 4.04 | 1.04 | 1.14 | 0.884 | 0.967 | 0.533 | 0.509 | 0.911 | 0.455 | 0.446 | 0.516 | 0.637 | 0.613 | 0.484 | 0.48 | 0.552
AKRKNYAPVAM [CFAP47_Y557] | 1.05 | 1.26 | 1.11 | 0.341 | 0.521 | 0.425 | 0.654 | 0.562 | 0.468 | 0.392 | 0.648 | 0.371 | 0.57 | 0.393 | 0.432 | 0.302
SDVCMYRKNTF [SYNE2_Y570_I574T_YF] | 0.507 | 0.732 | 0.787 | 0.726 | 0.904 | 0.534 | 0.497 | 0.711 | 0.4 | 0.456 | 0.551 | 0.571 | 0.636 | 0.395 | 0.4 | 0.382
ENRLDYGSAWA [AR_Y395_P392R] | 0.499 | 0.735 | 0.955 | 0.824 | 1.25 | 0.453 | 0.353 | 0.773 | 0.364 | 0.311 | 0.359 | 0.503 | 0.501 | 0.498 | 0.435 | 0.352
ADNQRYAFMPL [TMEM87B_Y460_N456D] | 2.15 | 0.649 | 1.02 | 0.673 | 0.812 | 0.663 | 0.733 | 0.728 | 6.67 | 0.628 | 1.07 | 0.641 | 0.781 | 0.503 | 0.452 | 0.502
YDGKDYIALKE [HLA-A_Y147_N151K] | 0.495 | 0.648 | 0.891 | 1.03 | 0.913 | 0.648 | 0.702 | 1.12 | 0.439 | 0.49 | 0.669 | 0.739 | 0.72 | 0.493 | 0.377 | 0.49
HLITAYRAHGF [PDHA1_Y118] | 0.422 | 0.642 | 0.981 | 0.408 | 0.74 | 0.389 | 0.701 | 0.648 | 0.369 | 0.536 | 0.572 | 0.609 | 0.309 | 0.551 | 0.344 | 0.489
YVPSNYVAEDR [FRK_Y104_I100V] | 0.608 | 0.738 | 0.735 | 0.655 | 0.754 | 0.424 | 0.441 | 0.886 | 0.414 | 0.382 | 0.53 | 0.632 | 0.584 | 0.411 | 0.392 | 0.497
GADDSYYTVRS [ZAP70_Y492_A495V] | 0.873 | 0.697 | 1.62 | 1.16 | 0.882 | 0.548 | 5.51 | 1.43 | 0.676 | 2.39 | 0.68 | 3.76 | 0.79 | 1.44 | 1.65 | 0.644
EHFSYYGMKAV [SLC15A2_Y61_R57H] | 0.951 | 0.816 | 0.923 | 9.46 | 0.765 | 0.818 | 8.11 | 1.01 | 2.35 | 3.42 | 0.887 | 6.68 | 0.634 | 1.71 | 3.38 | 0.607
LINSVYGCSRQ [TMPRSS6_Y290_T287N] | 0.589 | 1.12 | 0.727 | 1.82 | 1.57 | 1 | 1.02 | 1.43 | 1.21 | 4.43 | 1.01 | 0.974 | 1.37 | 3.32 | 5.15 | 0.863
KPNMNYDKLSR [FLI1_Y332] | 1.59 | 0.725 | 0.895 | 0.389 | 0.486 | 0.541 | 0.416 | 0.548 | 0.337 | 0.454 | 0.494 | 0.4 | 0.459 | 0.342 | 0.418 | 0.324
QEGPEYWDLET [HLA-A_Y83_Q86L] | 0.507 | 0.583 | 0.775 | 2.02 | 2.29 | 1.18 | 3.97 | 2.76 | 0.742 | 0.978 | 1.59 | 3.3 | 1.56 | 0.846 | 0.998 | 0.748
